Experiment [1] deals with T1, human GPVI-1B extracellular domain fused at its C-terminus to human IgG1 Fc (GPVI-Fc) (human).
T1 construct: Low frequency haplotype 'b'; also called hGPVI-lb; hGPVI-1b
Briefly: ELISA, coated GPVI-Fc, Fab titrated. As for the experimental part:
(§1) 0.5-2 nM of recombinant GPVI-Fc-fusion proteins (as described in Example 1) were coated overnight on Maxisorp microtiter plates at 4° C. […] Following washing with PBST, Fabs (comprising a modified heavy chain constant region) serially diluted to concentrations in the range of 600 nM to 1 pM in PBST with 5% skim milk powder (MPBST) were added for 1 h at RT. Plates were washed with PBST. Bound Fab was detected using an alkaline phosphatase-conjugated detection antibody (Jackson Immuno Research) diluted in MPBST and directed against human F(ab′)2 fragment. After washing with TBS supplemented with 0.05% Tween-20 (TBST), AttoPhos substrate (Roche) diluted in ddH2O was added and fluorescence intensity measured at a Tecan Infinite 200Pro reader. EC50 values were calculated using Prism 5 software (GraphPad).

The target in experiment [2] is T2, human GPVI-1A extracellular domain fused at its C-terminus to human IgG1 Fc (GPVI-Fc) (human).
T2 construct: also called hGPVI-1a; hGPVI
T2 sequence (chain, as listed by the source limits assumed): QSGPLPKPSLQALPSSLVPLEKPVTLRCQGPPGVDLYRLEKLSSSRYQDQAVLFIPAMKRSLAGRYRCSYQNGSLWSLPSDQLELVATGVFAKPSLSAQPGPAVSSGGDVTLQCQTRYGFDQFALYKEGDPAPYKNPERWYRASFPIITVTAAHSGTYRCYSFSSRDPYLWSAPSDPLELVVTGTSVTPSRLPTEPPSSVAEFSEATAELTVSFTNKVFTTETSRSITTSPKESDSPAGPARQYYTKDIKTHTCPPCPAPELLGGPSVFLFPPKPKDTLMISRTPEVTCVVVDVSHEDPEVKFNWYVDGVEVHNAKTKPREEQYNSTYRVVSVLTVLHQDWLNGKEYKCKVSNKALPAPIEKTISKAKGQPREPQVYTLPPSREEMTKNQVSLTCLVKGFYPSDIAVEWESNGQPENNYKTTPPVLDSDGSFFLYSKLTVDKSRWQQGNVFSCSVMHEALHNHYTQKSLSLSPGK
Briefly: ELISA, coated GPVI-Fc, Fab titrated. As for the experimental part:
as §1

In experiment [3] the target is T3, human GPVI-2A extracellular domain fused at its C-terminus to human IgG1 Fc (GPVI-Fc) (human).
T3 construct: Isoform 2, haplotype 'a'; also called hGPVI-2a
T3 sequence (chain, as listed by the source limits assumed): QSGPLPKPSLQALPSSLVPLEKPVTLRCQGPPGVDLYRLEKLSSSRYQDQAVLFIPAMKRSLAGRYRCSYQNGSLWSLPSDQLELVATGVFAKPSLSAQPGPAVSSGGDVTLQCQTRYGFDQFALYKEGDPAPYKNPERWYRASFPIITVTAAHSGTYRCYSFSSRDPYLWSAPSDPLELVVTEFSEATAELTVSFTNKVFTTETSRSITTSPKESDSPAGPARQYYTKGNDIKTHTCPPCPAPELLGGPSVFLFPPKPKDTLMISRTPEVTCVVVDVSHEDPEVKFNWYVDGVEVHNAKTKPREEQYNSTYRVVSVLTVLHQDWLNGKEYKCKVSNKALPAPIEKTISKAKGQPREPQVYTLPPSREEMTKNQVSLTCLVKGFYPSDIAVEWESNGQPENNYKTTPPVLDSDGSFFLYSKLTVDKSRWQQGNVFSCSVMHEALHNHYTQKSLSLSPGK
Briefly: ELISA, coated GPVI-Fc, Fab titrated. The protocol: as §1

In experiment [4] the target is T4, cynomolgus monkey GPVI extracellular domain fused at its C-terminus to human IgG1 Fc (GPVI-Fc) (cynomolgus monkey; human).
T4 construct: also called cyGPVI-2; cyGPVI
T4 sequence (chain, as listed by the source limits assumed): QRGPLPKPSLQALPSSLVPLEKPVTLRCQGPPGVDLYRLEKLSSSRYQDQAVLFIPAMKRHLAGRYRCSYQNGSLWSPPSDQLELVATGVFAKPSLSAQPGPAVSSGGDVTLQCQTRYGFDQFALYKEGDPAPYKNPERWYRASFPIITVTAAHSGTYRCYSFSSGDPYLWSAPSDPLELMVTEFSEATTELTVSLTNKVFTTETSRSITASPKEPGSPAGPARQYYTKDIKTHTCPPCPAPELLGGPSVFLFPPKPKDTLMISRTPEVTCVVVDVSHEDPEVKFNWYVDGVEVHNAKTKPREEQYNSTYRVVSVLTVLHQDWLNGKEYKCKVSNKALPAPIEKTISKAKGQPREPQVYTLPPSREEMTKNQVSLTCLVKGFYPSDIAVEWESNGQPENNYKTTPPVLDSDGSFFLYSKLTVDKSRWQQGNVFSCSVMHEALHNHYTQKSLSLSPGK
Briefly: ELISA, coated GPVI-Fc, Fab titrated. As for the experimental part:
as §1

The target of experiment [5] is T5, cynomolgus monkey GPVI on the cell surface of cynomolgus monkey platelets (cynomolgus monkey).
T5 construct: whole, on cells; also called GPVI on cynomolgus monkey platelets
The experiment in a line: FACS on washed cynomolgus platelets from PRP (one donor), PE-conjugated detection antibody, median fluorescence. The protocol:
(§2) Platelet-rich plasma (PRP) from up to 4 donors was prepared by centrifugation of citrated whole blood for 15 min at 150×g without brake. The resulting supernatant was transferred as PRP into a new sample tube without disturbing the underlying leukocyte-rich interphase. After careful washing in Tyrode's buffer supplemented with Prostacyclin 1₂ (PGI2; Epoprostenol-Rotexmedica), platelets were resuspended in Tyrode's/PGI2 and transferred to 96 well V-bottom microtiter plates. Platelets were spiked with Fab (comprising a modified heavy chain constant region) diluted to final concentrations between 0.015-30 μg/ml in Tyrode's/PGI2 and incubated for 30 min at RT. Platelets were carefully washed to remove non-bound Fab and then incubated for 30 min at RT with a Phycoerythrine (PE)-conjugated detection antibody (Jackson ImmunoResearch). After incubation for 30 min at RT, platelets were analyzed by flow cytometry in a FACS Canto II (Becton Dickinson). In the case of Fab directly conjugated with PE (FIG. 1D), incubation with detection antibody was omitted. Data was evaluated using FACS Diva software (Becton Dickinson). EC50 values were calculated using Prism 5 software (GraphPad).

The target in experiment [6] is T6, mouse GPVI extracellular domain fused at its C-terminus to human IgG1 Fc (GPVI-Fc) (mouse; human).
T6 construct: also called mGPVI; mouse GPVI-Fc
T6 sequence (chain, as listed by the source limits assumed): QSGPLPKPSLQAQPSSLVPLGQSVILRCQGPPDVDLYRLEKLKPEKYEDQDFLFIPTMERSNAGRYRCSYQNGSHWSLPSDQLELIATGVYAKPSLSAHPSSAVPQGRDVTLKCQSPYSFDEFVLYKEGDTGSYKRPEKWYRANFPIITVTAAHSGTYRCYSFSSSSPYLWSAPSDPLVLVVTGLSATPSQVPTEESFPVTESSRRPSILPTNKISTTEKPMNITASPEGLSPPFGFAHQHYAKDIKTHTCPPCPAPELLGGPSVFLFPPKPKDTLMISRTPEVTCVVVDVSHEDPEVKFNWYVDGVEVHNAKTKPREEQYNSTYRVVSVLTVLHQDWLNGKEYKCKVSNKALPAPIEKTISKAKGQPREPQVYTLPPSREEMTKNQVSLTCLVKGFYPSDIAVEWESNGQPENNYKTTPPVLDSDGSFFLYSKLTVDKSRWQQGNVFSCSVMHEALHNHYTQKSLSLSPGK
The experiment in a line: Solution equilibrium titration (SET), Fab with GPVI-Fc. The protocol:
(§3) Affinity determination in solution was basically performed as described in the literature (Friguet et al. 1985). In order to improve the sensitivity and accuracy of the SET method, it was transferred from classical ELISA to ECL-based technology (Haenel et al. 2005).
(§4) 1 mg/mL goat-anti-human (Fab)2 fragment specific antibodies (Dianova) were labeled with MSD Sulfo TAG™ NHS-Ester (Meso Scale Discovery | Gaithersburg | Md. | USA) according to the manufacturer's instructions. The experiments were carried out in polypropylene microtiter plates and PBS (GIBCO 14190 | pH 7.0-7.2) containing 0.5% BSA and 0.02% Tween20 as assay buffer. Serial dilutions of unlabeled human GPVI-Fc (SEQ ID NO: 4), cynomolgus monkey GPVI-Fc (SEQ ID NO: 7), and mouse GPVI-Fc (SEQ ID NO: 8) (as prepared in Example 1) were prepared, starting with a concentration at least 10 times higher than the expected KD. Wells without antigen were used to determine Bmax values; wells containing only assay buffer were used to determine background. After addition of appropriate amount of binder (antibody concentration similar to or below the expected KD, 60 μL final volume), the mixture was incubated over night at RT. MSD plates were coated with antigen or biotinylated antigen on standard and streptavidin plates, respectively (30 μL per well). After washing the plate with PBS with 0.05% Tween 20, the equilibrated samples were transferred to the plates and incubated for 20 min. Following incubation, 30 μL per well of the MSD-Sulfo-tag labeled detection antibody (anti-human (Fab)2 | final dilution typically 1:2,000) was added to the washed MSD plate and incubated for 30 min at RT on an Eppendorf shaker (700 rpm). After washing the MSD plate and adding 30 μL/well MSD Read Buffer T with surfactant, electrochemiluminescence signals were detected using a Sector Imager 6000 (Meso Scale Discovery | Gaithersburg | Md. | USA). The data was evaluated with XLfit (IDBS) software applying customized fitting models. For KD determination of Fabs the fit model according to (Haenel et al. 2005), modified according to (Abraham et al.) was used.

Experiment [7] concerns the target T2, human GPVI-1A extracellular domain …. Described as above. As for the experimental part:
as §3, §4

Experiment [8] addresses T4, cynomolgus monkey GPVI extracellular …. The description is as above. As for the experimental part: as §3, §4
Experiment [9] deals with T7, mouse GPVI on the cell surface of mouse platelets (mouse, UniProt P0C191 22-313).
T7 construct: whole, on cells; also called GPVI on murine platelets
T7 sequence (looked up): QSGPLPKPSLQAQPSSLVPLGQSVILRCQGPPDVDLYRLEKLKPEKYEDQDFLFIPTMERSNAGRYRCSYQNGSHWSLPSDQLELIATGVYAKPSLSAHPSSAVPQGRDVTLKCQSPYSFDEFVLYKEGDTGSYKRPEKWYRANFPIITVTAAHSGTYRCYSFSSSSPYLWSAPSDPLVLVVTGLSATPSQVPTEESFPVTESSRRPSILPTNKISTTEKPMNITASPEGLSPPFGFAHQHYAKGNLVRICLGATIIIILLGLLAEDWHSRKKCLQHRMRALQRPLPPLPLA
The experiment in a line: FACS on washed murine platelets from PRP (one exemplary donor), PE-conjugated detection antibody, median fluorescence. As for the experimental part:
as §2

T1 sequence (chain, as listed by the source limits assumed): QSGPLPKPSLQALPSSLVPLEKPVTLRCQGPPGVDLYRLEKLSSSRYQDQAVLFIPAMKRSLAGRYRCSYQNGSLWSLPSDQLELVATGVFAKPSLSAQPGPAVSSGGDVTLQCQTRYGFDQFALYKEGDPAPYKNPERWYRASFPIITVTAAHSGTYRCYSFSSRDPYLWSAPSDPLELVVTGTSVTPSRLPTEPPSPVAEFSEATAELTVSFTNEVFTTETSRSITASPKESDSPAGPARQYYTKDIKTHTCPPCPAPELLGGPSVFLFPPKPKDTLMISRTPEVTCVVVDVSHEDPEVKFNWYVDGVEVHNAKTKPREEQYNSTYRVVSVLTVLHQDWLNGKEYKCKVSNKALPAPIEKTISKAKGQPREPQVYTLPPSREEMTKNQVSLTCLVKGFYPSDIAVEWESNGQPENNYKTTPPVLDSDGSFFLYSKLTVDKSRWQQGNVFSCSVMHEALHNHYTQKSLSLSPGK

B1: Fab #2 comprising a modified heavy chain constant region (Fab, V domains shown)
VH: QVQLVESGGGLVKPGGSLRLSCAASGFSFSDHYMSWIRQAPGKGLEWVSSVGSEGKFIDYAASVKGRFTISRDNAKNSLYLQMNSLRAEDTAVYYCARHYREFRWHYYYFDYWGQGTLVTVSS
VL: QSVLTQPPSVSGAPGQRVTISCTGSSSNIGAGYDVHWYQQLPGTAPKLLIYGNSNRPSGVPDRFSGSKSGTSASLAITGLQAEDEADYYCQSHDLGAHVWVFGGGTKLTVLG
notes: Human Fab from the Ylanthia library; produced in HKB11 cells; also called Fab #2 mod; HC
For the molecule B1, the concentration for a half-maximal effect (EC50) in experiment [1] came to 0.45 nM; in experiment [2] it was 0.41 nM; in experiment [3], 0.65 nM; in [4] it was 0.42 nM. Besides, the “EC50 (read off the curve)” value in experiment [5] is around 0.6 µg/mL; in [9], around 0.5 µg/mL. Besides, the equilibrium dissociation constant (Kd) was determined as 7.1 nM in experiment [6], 0.027 nM in [7] and 0.024 nM in experiment [8].

B2: Fab #3 comprising a modified heavy chain constant region (Fab, V domains shown)
VH: QVQLVESGGGLVKPGGSLRLSCAASGFSFGDYYVSWIRQAPGKGLEWVSAIGGSGSAVQYAESVKGRFTISRDNAKNSLYLQMNSLRAEDTAVYYCARHYREFRWHYYYFDYWGQGTLVTVSS
VL: QSVLTQPPSVSGAPGQRVTISCTGSSSNIGAGYDVHWYQQLPGTAPKLLIYGNSNRPSGVPDRFSGSKSGTSASLAITGLQAEDEADYYCQSHDLGAHVWVFGGGTKLTVLG
notes: Human Fab from the Ylanthia library; produced in HKB11 cells; also called Fab #3 mod; HC
As for B2, the concentration giving a half-maximal response (EC50) in [1] stood at 0.39 nM; in experiment [2] it was 0.35 nM; in [3], 0.48 nM; in [4], 0.37 nM. For the same molecule, the results for the concentration giving a half-maximal response (EC50 (read off the curve)) in [5] and in [9] were around 0.6 µg/mL and around 0.3 µg/mL, respectively. The dissociation constant Kd in experiment [6] was 0.6 nM; in experiment [7], 0.062 nM; in [8], 0.068 nM.

B3: Reference Control Antibody RefFab #1 (humanized GPVI antibody of WO2011073954A2, SANOFI) (Fab, V domains shown)
VH: EVQLLESGPGLVAPSGSLSITCTVSGFSLTGYGVNWVRQPPGKGLEWLGMIWGDGSTDYQSTLKSRLSISKDNSKSQVFLKMNSLRTDDTARYYCARDLPMDYWGLGTSVTVSS
VL: DIQMTQSPSSLSASVGGRVTITCKASQDINKYIAWYQHKPGKGPSLLIHYTSTLQPGVPSRFSGSGSGRDYSFSISNLQPEDIATYYCLQYANLLTFGGGTKLEIKR
notes: Cloned into mammalian Fab expression vectors; a glycine-serine linker (G4S)2 was added to the C-terminus of the Fab heavy chain
For B3, the EC50 amounted to 1 nM in experiment [1], 0.93 nM in experiment [2], 1.43 nM in experiment [3] and 0.58 nM in [4]. The half-maximal effective concentration (EC50 (read off the curve)) in experiment [5] was around 0.5 µg/mL. Moreover, the Kd in [7] is 0.054 nM; in [8] it was 0.036 nM.

B4: Fab #1 comprising a modified heavy chain constant region (Fab, V domains shown)
VH: QVQLVQSGAEVKKPGASVKVSCKASGYTFTSHYMHWVRQAPGQGLEWMGLIEPSEGETEYAQRFQGRVTMTRDTSTSTVYMELSSLRSEDTAVYYCARDSSRSYPLGFDIWGQGTLVTVSS
VL: QSVLTQPPSVSAAPGQKVTISCSGSSSNIGNNYVSWYQQLPGTAPKLLIYDNNKRPSGIPDRFSGSKSGTSATLGITGLQTEDEADYYCAAWDFRSSRWVFGGGTKLTVLG
notes: Human Fab from the Ylanthia library; produced in HKB11 cells; also called Fab #1 mod; HC
Regarding B4, the concentration for a half-maximal effect (EC50) is 0.66 nM in [1], 0.46 nM in [2], 0.93 nM in experiment [3] and 0.53 nM in [4]. Moreover, the entries for the “EC50 (read off the curve)” value in experiment [5] and in [9] were around 0.4 µg/mL and around 3 µg/mL, respectively. Moreover, the dissociation constant Kd in [6] stood at 28 nM; in experiment [7], 0.068 nM; in experiment [8] it was 0.075 nM.

B5: Fab #4 comprising a modified heavy chain constant region (Fab, V domains shown)
VH: QVQLVQSGAEVKKPGASVKVSCKASGGAFTSSYMHWVRQAPGQGLEWMGIIEPTGASTLYAQRFQGRVTMTRDTSTSTVYMELSSLRSEDTAVYYCARTGIALPLGFDLWGQGTLVTVSS
VL: QSVLTQPPSVSAAPGQKVTISCSGSSSNIGNNYVSWYQQLPGTAPKLLIYDNNKRPSGIPDRFSGSKSGTSATLGITGLQTEDEADYYCAAWSTRFRWVFGGGTKLTVLG
notes: Human Fab from the Ylanthia library; produced in HKB11 cells; also called Fab #4 mod; HC
Regarding B5, the EC50 in experiment [1] was determined as 0.48 nM; in experiment [2], 0.41 nM; in experiment [3], 0.74 nM; in experiment [4] it was 0.5 nM. Further, the “EC50 (read off the curve)” value in experiment [5] was around 0.7 µg/mL; in experiment [9] it was around 0.2 µg/mL. For the same molecule, the equilibrium dissociation constant (Kd) in experiment [6] was 0.29 nM; in experiment [7], 0.022 nM; in experiment [8], 0.017 nM.

Source of the values: patent publication US20210214435A1 (MorphoSys, published 2021).
